Results published in a protein production outcome set (Wang et al. 2014).

Test: label from the status in PepcDB records
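Further: failed if final PepcDB status was selected cloned or expressed and not failed if soluble or beyond.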

MAMRELSQLNRDSDGDEEVWVKHYSSNHQILLVGEGDFSFSHSLATLFGSASNICASSLDSYDVVVRKYKKARSNLKTLKRLGALLLHGVDATTLHFHPDLRYRRFDRVIFNFPHAGFHGRESDSSLIRKHRELVFGFFNGASRLLRANGEVHVSHKNKAPFSEWNLEELASRCFLVLIQRVAFEKNNYPGYENKRGDGRRCDQPFLLGECSTFKFRFSRVAKELYAEKVRSREVKERESMYPEAILNKQPVSFDHRYRLQTEFEAIAGTITLGKSKILWLSQEKGHLHWIFVTTKNVDVYSSKIPESPERHRLLCQDFPVQASQEPLSEYSNRWSGVSREIYNWEVRRMSTSTSFPHPYTGESQERSLSRQSNLITHPPQHW
protein production: failed

MKLKHKRDDKMRFDIKKVLELAEKDFETAWRETRALIKDKHIDNKYPRLKPVYGKPHPVMETIERLRQAYLRMGFEEMINPVIVDEMEIYKQFGPEAMAVLDRCFYLAGLPRPDVGLGNEKVEIIKNLGIDIDEEKKERLREVLHLYKKGAIDGDDLVFEIAKALNVSNEMGLKVLETAFPEFKDLKPESTTLTLRSHMTSGWFITLSSLIKKRKLPLKLFSIDRCFRREQREDRSHLMSYHSASCVVVGEDVSVDDGKVVAEGLLAQFGFTKFKFKPDEKKSKYYTPETQTEVYAYHPKLGEWIEVATFGVYSPIALAKYNIDVPVMNLGLGVERLAMIIYGYEDVRAMVYPQFYEYRLSDRDIAGMIRVDKVPILDEFYNFANELIDICIANKDKESPCSVEVKREFNFNGERRVIKVEIFENEPNKKLLGPSVLNEVYVYDGNIYGIPPTFEGVKEQYIPILKKAKEEGVSTNIRYIDGIIYKLVAKIEEALVSNVDEFKFRVPIVRSLSDINLKIDELALKQIMGENKVIDVRGPVFLNAKVEIK
protein production: not failed

MREVSLRIDRYLVNTRITPNQLTYLMTVCGVLAAPALLVPGIWGAVLGVVAVQLYLLLDCVDGEIARWRKQYSLGGVYLDRVGAYLTDAAVLVGLGLRAADIWGTGRIDWLWAFLGTLAALGAILIKAETDLVGVARHQNGMPPVKEAASEIRSSGMALARRAAGALKFHRLILGIEATLLILVLAIVDQARGDLFFTRLGTAVLAGIALLQTLLHLVSILASSRLK
protein production: failed

MPGKGEGSPVGIAILGYGTVGSQVLRLLTENHNDFQHRAGGPLEIKGVAASSVEKHRGSLADQLGLLTDDARSLIARDDVDIVVEVIGGIDYPRELILEALHSGKSVVTANKALVAAHSEELAAAADEAGVDLYFEAAVAAAIPVLGPLRRSLAGDQIQSVAGIVNGTTNFILDAMDSTGASYDDMLAEATRLGYAEADPTADVEGHDAASKAAILASLAFHTRVTYADVYCEGISKITADDINAAKEAGFTIKLLAICERLNVDGVEKVSARVHPTLVPRNHPLASVDKSFNAIFVEAEAAGRLMFYGNGAGGNPTASAVLGDIVGAARNKVFGGRAPGESTYADLPIAPFGEVPTRFHIDMEVEDRVGVLADLAKTFSNHGISLRTVRQAEKDGHARLIVVTHTAKESELEATVEQIKNSDSVKKINSVIRLAGLEHHHHHH
protein production: not failed

MVNQEKTLDVGFTHADFAALLDRYDYHFNPGDIVAGTVFSIEPKGALIDIGAKTAAYIPIQEMSINRIESPEEVLQPNETREFFILADENEEGQLTLSIRRIEYMRAWERVRQLQAEDATVRSQVFATNRGGALVRIEGLRGFIPGSHISTRVNKEELVGEELPLKFLEVDEERNRLVLSHRRALVERKMNKLEVGEVVVGTVRGIKPYGAFIDIGGVSGLLHISEISHDHIDTPHSVFNVNDQVKVMIIDLDAERGRISLSTKQLEPEPGDMVKNPQLVYEKAEEMAERYRQQLLQQQQQAAGETPEEGMEDIPEATEDDSPAPILQEALEHHHHHH
protein production: failed

MDFLVAHFNLLRGLHILAVIAFMAGMLYLPRLFVYHTKATPGSQMDETFKVMERRLLRGIINPASIATAVFGLGLILADAQIRGWDFLLQPWMIAKLVALVGLYGFHGFLSASRKKFERGENVRSEKFWRMVNEIPFVLAIVIVMSVTTKYLNH
protein production: failed

MQDIVRKTIDNLNRNHMAGYYTQSIQQLHELLYRLMPEGQTVGCGDSVTLEQSGVYEYVRNHSYNFLDKYRTGLNREEKREIYLQNFRADTFLTGINAVTIDGKLFNIDGNGSRVAPIIYGPKQVIAVVGTNKIVKSVDDAIWRTRQIAAPLDARRLAKETPCVKLAKCIDCHHSQRICNDFVLITGQFEKGRIKVIFIEGDYGY
protein production: failed

MTDVRHCPAVLIAAPASGQGKTTVTAALARLHRNRGRKVRVFKCGPDFLDPMILERASGAAVYQLDMWMVGEQESRRLLWEAAGEADLILIEGVMGLFDGTPSSADLARHFGVPVLGVIDGTAMAQTFGALALGLARYQPDLPFAGVLANRVGTLRHAQLLEGSLTEGLRWYGALSRETDIELPSRHLGLVQASELNDLDLRLDAAAEALASSCQVELPPAVSFAAPTPVACAPLLKGVRIAVARDEAFAFTYGASLDLLRAMGAQLSFFSPIHDTQLPDADSLYLPGGYPELHHQALARNSSMLQAIRAHHAAGKPLLAECGGMLYLLDSLTDVEGQRAELLGLLPGDAVMQKRLAALALQAVDLPEGSLRGHTYHHSLTSTELLPIARGLSPNGGRGAEAVYRQGRMTASYVHFYFPSNPAAVAALFAPGAPVEPVLAEGVAGELEHHHHHH
protein production: failed

MNFPTQTHAIDFDTAELQRLGFRNRPDAVLPPPSLPELVYQLGRQLQTSLEAERILTLFFQGVQRFLPLSGLVYRHIESDLHLRLGEMSSDSASFHLRHEGKCIGELEFQGAKPFDTRQLSDLESLLVCLVYPLLNALLYRIATQTALRDPLTSTGNRIAMDQGLAREIEISSRHKQPLSLLMLDIDHFKKVNDEYGHHTGDDVLKTVAQSLKAQLRNIDRVFRYGGEEFVVILSNTGATAAELIGERLRQAVRNLEFRELDPALTMTVSLGCSTLLPTETADSLLRRADNALYVAKREGRNRLAMAS
protein production: failed

MDLMAYWLCITNEDNWKVIKEKKIWGVAERYKNTINKVKVGDKLIIYEIQRSGKDYKPPYIRGVYEVVSEVYKDSSKIFKPTPRNPNEKFPYRVKLKEIKVFEPPINFKELIPKLKFITNKKRWSGHLMGKAMREIPEEDYKLIVGN
protein production: not failed

MPEITLNCQKLPCPQPVLRCKALLDTEAPARCTVTVDNAPASENVARFLTSRGYDTSVHADPEGLWNIIAVRKDSAVAPSCDCEVMDARGIAAIAGTAEMPQKVTVFITSETLGSGDDVLGGKLMANFLATLPELGDELWRIVCVNGGVRLATREHPAVTHLNKLEAMGVDILVCGTCLDHFGLLSEKAVGQTTNMLDVVTSLQLATKVIRPLEHHHHHH
protein production: not failed

ARIARVVVHPDYRSDGLGQLSVKAALEWIAERRIPEMRKKKHFVETIAQMARYNPFFEKVGFRYVWETASG
protein production: failed

MEHICGTSRIAGFRFSLYPMTDDFISVIKSALKKTDTSKVWTKTDHISTVLRGSIDHVFDAAKAIYLHAANSEQHIVMNGTFSIGCPGDTQGDTYLSKGDKRVNEDAVRGLKAEAPCQFALYPMNEPDYMGLIMEAVDIAKAQGTFVQGVHYASELDGDAHDVFSTLEAVFRMAEQQTNHITMTVNLSANSPSRKNRKQG
protein production: not failed

MGWVTDWSAQAACRTTDPDELFVQGAAQNRAKAVCTGCPVRTECLADALDNRVEFGVWGGMTERERRALLRRRPTVTSWRRLLETARTEYERGVGIVPLDDDEVYENYAAVG
protein production: failed

MSDLVSYHLDDGVATLTLNNGKVNAISPDVIIAFNAALDQAEKDRAIVIVTGQPGILSGGYDLKVMTSSAEAAINLVAQGSTLARRMLSHPFPIIVACPGHAVAKGAFLLLSADYRIGVAGPFSIGLNEVQIGMTMHHAGIELARDRLRKSAFNRSVINAEMFDPEGAMAAGFLDKVVSVEELQGAALAVAAQLKKINMNAHKKTKLKVRKGLLDTLDAAIEQDRQHML
protein production: not failed

MDTSLPSAILNNMVTATLILDDGLAIRYANPAAELLFSQSAKRIVEQSLSQLIQHASLDLALLTQPLQSGQSITDSDVTFVVDGRPLMLEVTVSPITWQRQLMLLVEMRKID
protein production: not failed

MKSAVEQLSTYKSVHLNPRNIQTHFIGIPLIIWSAFLLFATIRIPLGDADNVNLGMILAIGIMLYYLRLHAKLALGLALFLAPVIYTTELVAHSENAFGLAITVFIVGWIFQLIGHRYEKAKPAFVDDLNQLLIGPFFLMAEVYFMLGLEKQLNAEITPIAIEKRRALEAHLKTK
protein production: failed

MEYYDIIIVGAGPAGSTLARALEDSGKRVLIIDKQAFPRDKTCAGWVTPAVMASLDIDPGKYSVGRTLQPIRRFRIGMMGQSAVENDHGDIVSYGIRRCEFDDYLLDRAECEKQLATAVKSINRNNGNWVINDQWQAPLLVGAGGHFCPVARLLGDGPGKHETVVAAKEVEFEMTPEQARACEARGDTPELWFCRDLKGYAWVFRKGSYLNIGLGREDNHRLSDHLEAFVEEMKQSGRIPSDLPGRFKGHAYLLYAHANRPLVDDGVLLIGDAAGLAYTQSGEGIRPAIESALMAANVIKAAPDYSALSLQSYGERIAERFGTRATDQQPGFEVPEWLKQPIASTLMRSHWFTRKVVTEKWFLHQEVPPLEVAV
protein production: failed

GSAQEEQSANEVAVSYSKSLKAAEMDSLQLPVDADGYITIFDGKTFNGWRGYGKDRVPSKWTIEDGCIKFNGSGGGEAQDGDGGDLIFAHKFKNFELEMEWKVSKGGNSGIFYLAQEVTSKDKDGNDVLEPIYISAPEYQVLDNDNHPDAKLGKDNNRQSASLYDMIPAVPQNAKPFGEWNKAKIMVYKGTVVHGQNDENVLEYHLWTKQWTDLLQASKFSQDKWPLAFELLNNCGGENHEGFIGMQDHGDDVWFRNIRVKVLD
protein production: not failed

MCDTFVEFIQLEETVKHDENGKPVKRLRRRETLVHSENVAGRSFWNEHSSLHKDLGHFAKDIGKIEPDYVKSFQFESRLLPLTWVVVRIDGCHFHRFSEVHEFEKPNDEQALKLMNSCAVAVLEEFQDIAFAYGVSDEFSFVLKNKSELYKRQSSKIISAVVSFFTSTYMMRWGDFFPHKKLKYPPSFDGRAVCYPTSDILLDYLAWRQVDCHINNQYNTCFWMLVKSGKSKIQAQDYLKGTQTREKNELLSQQFGIEYNSLPVIFRMGSSVFRLKVLLLLSYSKILLVFHSRFLLL
protein production: failed

MNYRLLVFDFDGTLADSEASIMGAMQLVAKEFGLSEVDCVKARPTIGLSLLRTIEIGLGLEAGDAAAAVELYRRYYKEIAFDSTCLFPGVKETQEQLRQNSLLAIASSKSRQGLLSRMRQFGIVDHFSFIAGAQDISGL
protein production: failed

MANVLVINFPGEGHINPTLAIISELIRRGETVVSYCIEDYRKKIEATGAEFREFENFLSQINIMERVNEGGSPLTMLSHMIEASERIVTQIVEETKGEQYDYLLYDNHFPVGRIIANVLQLPSISSCTTFAFNQYITFNDEQESRQVDETNPLYQSCLAGMEKWNRQYGMKCNSMYDIMNHPGDITIVYTSKEYQPRSDVFDESYKFVGPSIATRKEVGSFPMEDLKGEKLIFISMGTVFNEQPELYEKCFEAFKGVEATVILAVGKKINISQFENIPNNFKLYNYVPQLEVLQHADVFVTHGGMNSSSEALYYGVPLVVIPVTGDQPLVAKRVNEVGAGIRLNRKELTSELLRETVKEVMYDVTFKENSRKVGESLRNAGGYKRAVDEIFKMKMNSYLKLK
protein production: failed

METELVTYKEKNVQMSMLEVIGMIGIIFGVMYGIGYLNFLYEFSLYPWYVNHLISPFTFCMIIVMYAPARNYCVQLVKSIQFNHFKHYVTIVMTMIVLLIYLAVLNLVLPHGLGVEGSNIVIEPTKNEIILYVVVLTIFAPIWEELVFRGMFFMKLSQRFSTLSSAVISAFIFTLGHPLTVGSILYIFGIGICLAYTYKKTNNLLVPIGIHVLNNSFNLLVNFQL
protein production: failed
